Reference: patent US20170165339A1 (IMMATICS BIOTECHNOLOGIES, published 2017)

molecular target: HLA-A*02 (human); assay: UV peptide-exchange ELISA, yield grade

| Binder | peptide exchange yield |
| --- | --- |
| ALAPHLDDA [ALAPHLDDA (SEQ ID NO: 237)] | 50 to 75% |
| ILLEKILSL [ILLEKILSL (SEQ ID NO: 260)] | 50 to 75% |
| KTIQQLETV [KTIQQLETV (SEQ ID NO: 241)] | 20 to 49% |
| GLCERLVSL [GLCERLVSL (SEQ ID NO: 249)] | ≥ 75% |
| KLQGKLPEL [KLQGKLPEL (SEQ ID NO: 254)] | 20 to 49% |
| ALAELIDNSL [ALAELIDNSL (SEQ ID NO: 253)] | 50 to 75% |
| ILLPRIIEA [ILLPRIIEA (SEQ ID NO: 259)] | 50 to 75% |
| ALSVLRLAL [ALSVLRLAL (SEQ ID NO: 251)] | 50 to 75% |
| FMVDKAIYL [FMVDKAIYL (SEQ ID NO: 262)] | 50 to 75% |
| KMNESTRSV [KMNESTRSV (SEQ ID NO: 239)] | 20 to 49% |
| GLYTDPCGV [GLYTDPCGV (SEQ ID NO: 257)] | ≥ 75% |
| FMADDIFSV [FMADDIFSV (SEQ ID NO: 243)] | 50 to 75% |
| ALYEGYATV [ALYEGYATV (SEQ ID NO: 247)] | 50 to 75% |
| GLYERPTAA [GLYERPTAA (SEQ ID NO: 238)] | 20 to 49% |
| KIIDFLSAL [KIIDFLSAL (SEQ ID NO: 235)] | 50 to 75% |

Next, values leading:

| peptide exchange yield | Binder |
| --- | --- |
| ≥ 75% | SLLDLPLSL [SLLDLPLSL (SEQ ID NO: 245)] |
| 20 to 49% | VLLSEQGDVKL [VLLSEQGDVKL (SEQ ID NO: 263)] |
| ≥ 75% | LLSERFINV [LLSERFINV (SEQ ID NO: 258)] |
| 20 to 49% | WLYGEDHQI [WLYGEDHQI (SEQ ID NO: 242)] |
| 20 to 49% | SLGEEQFSV [SLGEEQFSV (SEQ ID NO: 256)] |
| 20 to 49% | YLLEKNRVV [YLLEKNRVV (SEQ ID NO: 244)] |
| 50 to 75% | RLMEICESL [RLMEICESL (SEQ ID NO: 252)] |
| 50 to 75% | SLLHFTENL [SLLHFTENL (SEQ ID NO: 255)] |
| 50 to 75% | LLSPHNPAL [LLSPHNPAL (SEQ ID NO: 234)] |
| 50 to 75% | SLAPATPEV [SLAPATPEV (SEQ ID NO: 250)] |
| 50 to 75% | TVSDVLNSV [TVSDVLNSV (SEQ ID NO: 246)] |
| 50 to 75% | QLQDRVYAL [QLQDRVYAL (SEQ ID NO: 261)] |
| 50 to 75% | YMGEEKLIASV [YMGEEKLIASV (SEQ ID NO: 240)] |
| 50 to 75% | STIAILNSV [STIAILNSV (SEQ ID NO: 236)] |
| ≥ 75% | YLDRFLAGV [YLDRFLAGV (SEQ ID NO: 248)] |
